# Values of other authors in PMC4547496.
# Key:
# Gαo (Homo sapiens) = Gαo (Homo sapiens) (UniProt P09471); test: FCPIA
# [1] = target: BAG family nucleotide exchange factor (Homo sapiens) (UniProt Q99933); test: FCPIA
# Chain of UniProt Q99933 (Q99933 whole entry): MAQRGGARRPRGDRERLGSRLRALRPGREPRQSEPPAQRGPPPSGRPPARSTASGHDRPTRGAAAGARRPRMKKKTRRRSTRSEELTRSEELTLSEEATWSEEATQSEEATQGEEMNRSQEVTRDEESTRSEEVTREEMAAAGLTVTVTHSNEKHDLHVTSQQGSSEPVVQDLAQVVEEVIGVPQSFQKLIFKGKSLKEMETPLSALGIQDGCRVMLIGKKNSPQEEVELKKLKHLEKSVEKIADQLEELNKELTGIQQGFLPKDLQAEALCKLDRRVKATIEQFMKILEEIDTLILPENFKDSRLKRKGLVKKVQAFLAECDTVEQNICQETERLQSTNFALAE
# Chain of UniProt P09471 (P09471 2-354): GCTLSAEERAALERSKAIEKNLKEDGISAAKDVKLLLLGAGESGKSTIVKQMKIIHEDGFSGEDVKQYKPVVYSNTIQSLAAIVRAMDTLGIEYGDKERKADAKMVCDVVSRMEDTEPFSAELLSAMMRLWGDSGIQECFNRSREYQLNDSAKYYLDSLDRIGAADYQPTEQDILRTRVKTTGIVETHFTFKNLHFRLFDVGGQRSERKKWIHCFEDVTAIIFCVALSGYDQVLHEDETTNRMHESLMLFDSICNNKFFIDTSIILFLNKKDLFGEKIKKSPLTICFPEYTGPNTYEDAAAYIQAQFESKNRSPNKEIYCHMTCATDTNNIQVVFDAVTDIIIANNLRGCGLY
Kd (Gαo (Homo sapiens)) [nM],Kd [1] [nM],Substance
4,,RGS4 (from UniProt P49798)
,1000,Hsp70 (from UniProt P0DMV8)
